Experimental findings from publication PMC2783993 (Biotechnology progress, 2009) are described below.

This data set deals with the molecule itself. As to the kind of experiment: LC-MS.

B1: bovine hemoglobin β globin chain (natural protein)
chain: not shown
On to B1, for which the “stoichiometry N” value amounted to 2.

Usually stoichiometry N stands for the number of molecules, sites or subunits per partner or assembly.
